Measurements: patent publication US20240360203A1
Read-outs that look alike come from different tables or passages of the source.

Experiments:
Experiment in all cases: cell-based or functional assay
[1] = molecular target: SARS-CoV-2 D614G spike protein (SARS-CoV-2) (UniProt P0DTC2)
[2] = molecular target: SARS-CoV-2 BA.4/5+K444T Spike on pseudovirus (SARS-CoV-2) (UniProt P0DTC2)
[3] = molecular target: SARS-CoV-2 D614G spike protein (SARS-CoV-2) (UniProt P0DTC2); remark: listed apart in the source
[4] = molecular target: SARS-CoV-2 D614G spike protein (SARS-CoV-2) (UniProt P0DTC2); remark: listed apart in the source
[5] = molecular target: SARS-CoV-2 D614G spike protein (SARS-CoV-2) (UniProt P0DTC2); remark: listed apart in the source
[6] = molecular target: SARS-CoV-2 D614G spike protein (SARS-CoV-2) (UniProt P0DTC2); remark: listed apart in the source
[7] = molecular target: SARS-CoV-2 BA.5.8 + P1162L spike protein (SARS-CoV-2)
[8] = molecular target: SARS-CoV-2 BA.1.1 + P1162S spike protein (SARS-CoV-2)

Sotrovimab VH/VL-huIgG1 (antibody) gave a pseudovirus neutralization EC50, Vero E6 [1] of 27.9 ng/mL.
Substance “Sotrovimab VH/VL (human IgG1 molecule expressing the same variable regions of Sotrovimab) (antibody)” has an IC50, pseudovirus neutralization [2] of 304 ng/mL.
In the case of Sotrovimab VH/VL-huIgG1-LS (antibody), the pseudovirus neutralization EC50, Vero E6 [1] is reported as 35.2 ng/mL, the pseudovirus neutralization EC80, Vero E6 (sotrovimab VH/VL-huIgG1-LS + isotype) [3] is reported as 69 ng/mL and the pseudovirus neutralization EC50, Vero E6 (sotrovimab VH/VL-huIgG1-LS + isotype) [4] is reported as 14 ng/mL. For the same substance, the pseudovirus neutralization EC90, Vero E6 (sotrovimab VH/VL-huIgG1-LS + isotype) [5] was 170 ng/mL and the pseudovirus neutralization Emax, Vero E6 (sotrovimab VH/VL-huIgG1-LS + isotype) (% neutralization) [6] was 98.3.
Work on Bebtelovimab (antibody) yielded a pseudovirus neutralization EC50 [1] of 0.57 ng/mL, a pseudovirus neutralization EC50, TMPRSS2-Vero E6 (bebtelovimab + isotype) [1] of 1.7 ng/mL and a pseudovirus neutralization EC50, Vero E6 (bebtelovimab + isotype) [1] of 0.64 ng/mL. The pseudovirus neutralization EC80 [1] was 4.9 ng/mL, the pseudovirus neutralization EC80, TMPRSS2-Vero E6 (bebtelovimab + isotype) [1] was 11 ng/mL and the pseudovirus neutralization EC80, Vero E6 (bebtelovimab + isotype) [1] was 2.7 ng/mL. It also gave a pseudovirus neutralization EC90 [1] of 18 ng/mL, a pseudovirus neutralization EC90, TMPRSS2-Vero E6 (bebtelovimab + isotype) [1] of 32 ng/mL and a pseudovirus neutralization EC90, Vero E6 (bebtelovimab + isotype) [1] of 6.1 ng/mL. For the same substance, the pseudovirus neutralization Emax (% neutralization) [1] was 99.9, the pseudovirus neutralization Emax, TMPRSS2-Vero E6 (bebtelovimab + isotype) (% neutralization) [1] was 99.4 and the pseudovirus neutralization Emax, Vero E6 (bebtelovimab + isotype) (% neutralization) [1] was 99.4. The pseudovirus neutralization EC50 [7] was 0.13 ng/mL, the pseudovirus neutralization EC80 [7] was 1.1 ng/mL and the pseudovirus neutralization EC90 [7] was 3.7 ng/mL. It also gave a pseudovirus neutralization Emax (% neutralization) [7] of 99.9, a pseudovirus neutralization EC50 [8] of 0.12 ng/mL and a pseudovirus neutralization EC80 [8] of 1.4 ng/mL. The pseudovirus neutralization EC90 [8] was 6 ng/mL, the pseudovirus neutralization Emax (% neutralization) [8] was 100 and the IC50, pseudovirus neutralization [2] was 1220 ng/mL. The pseudovirus neutralization EC80, Vero E6 (bebtelovimab + isotype) [3] was 2.9 ng/mL, the pseudovirus neutralization EC50, Vero E6 (bebtelovimab + isotype) [4] was 0.29 ng/mL and the pseudovirus neutralization EC90, Vero E6 (bebtelovimab + isotype) [5] was 11 ng/mL. It also gave a pseudovirus neutralization Emax, Vero E6 (bebtelovimab + isotype) (% neutralization) [6] of 99.7.
Substance Sotrovimab VH/VL-hamIgG2a (antibody) has a pseudovirus neutralization EC50, Vero E6 [1] of 8.51 ng/mL.
